# Several values for one entry are separate records, joined by “and”; a condition that tells them apart may be missing. Equal values may be shown once.
# B1: ZM-ODP2-(266-669): truncated maize Ovule Development Protein 2 polypeptide (SEQ ID NO: 2) encoded by ZM-ODP2 (TR5); expressed from plasmid RV027603 under egg cell promoter (protein)
# chain: MDTFGQRTSIYRGVTRHRWTGRYEAHLWDNSCRREGQTRKGRQVYLGGYDKEEKAARAYDLAALKYWGATTTTNFPVSNYEKELEDMKHMTRQEFVASLRRKSSGFSRGASIYRGVTRHHQHGRWQARIGRVAGNKDLYLGTFSTQEEAAEAYDIAAIKFRGLNAVTNFDMSRYDVKSILDSSALPIGSAAKRLKEAEAAASAQHHHAGVVSYDVGRIASQLGDGGALAAAYGAHYHGAAWPTIAFQPGAASTGLYHPYAQQPMRGGGWCKQEQDHAVIAAAHSLQDLHHLNLGAAGAHDFFSAGQQAAAAAMHGLGSIDSASLEHSTGSNSVVYNGGVGDSNGASAVGGSGGGYMMPMSAAGATTTSAMVSHEQVHARAYDEAKQAAQMGYESYLVNAENNGGG
# modifications: Zea mays
# notes: expressed from plasmid RV027603 under egg cell promoter
# B2: ZM-ODP2-(266-668):At-CBF1a: fusion protein (SEQ ID NO: 15) of truncated ZM-ODP2 and C-repeat/DRE binding factor domain At-CBF1a; expressed from plasmid RV048759 under PvEC1 promoter (protein)
# chain: MDTFGQRTSIYRGVTRHRWTGRYEAHLWDNSCRREGQTRKGRQVYLGGYDKEEKAARAYDLAALKYWGATTTTNFPVSNYEKELEDMKHMTRQEFVASLRRKSSGFSRGASIYRGVTRHHQHGRWQARIGRVAGNKDLYLGTFSTQEEAAEAYDIAAIKFRGLNAVTNFDMSRYDVKSILDSSALPIGSAAKRLKEAEAAASAQHHHAGVVSYDVGRIASQLGDGGALAAAYGAHYHGAAWPTIAFQPGAASTGLYHPYAQQPMRGGGWCKQEQDHAVIAAAHSLQDLHHLNLGAAGAHDFFSAGQQAAAAAMHGLGSIDSASLEHSTGSNSVVYNGGVGDSNGASAVGGSGGGYMMPMSAAGATTTSAMVSHEQVHARAYDEAKQAAQMGYESYLVNAENNGGGGGGGSGGGGSGGGGSTCAKDIQKAAAEAALAFQDETCDTTTTNHGLDMEETMVEAIYTPEQSEGAFYMDEETMFGMPTLLDNMAEGMLLPPPSVQWNHNYDGEGDGDVSLWSY
# Tests used:
# [1] = chemical chromosome doubling, Frei et al. 2018; cited from earlier work
# [2] = tested on: unfertilized egg cell; assay: In vivo genetic chromosome doubling: fertility (mature seed set) of self-pollinated regenerated T1 (D0) plants, Example 3; parameters: species or system Zea mays
# From the text: Using the methods described in Example 2, T0 transgenic plants hemizygous for RV027603 (SEQ ID NO: 7) were obtained from a population of transformed immature diploid embryos. […] Using methods known in the art, single copy T0 plants were identified and grown to maturity. Upon the transition to flowering, the T0 plants were used as female parent plants to provide a donor ear.
# (§1) The ears of the transgenic female parent plants were shoot-bagged before silk emergence to avoid any foreign pollen contamination. The silks of the donor ears were pollinated with viable pollen grains collected from the anthers of a haploid inducer parent plant, constituting a “haploid induction cross”.
# (§2) Immature ears were harvested approximately 18 days after pollination, surface sterilized in 30% Clorox bleach plus 0.5% Micro detergent for 20 minutes and washed twice with sterile water. Immature embryos obtained from each donor ear comprising a biological replicate for a unique transformation event were plated on a petri dish containing 605B resting medium and incubated at 28° C. under dark conditions for 12-24 hours.
# A total of 8 unique events for RV027603 were analyzed. Per event, two groups of haploid embryos were obtained given the hemizygous T-DNA from RV027603 inherited from the maternal plant. A first group of haploid embryos lacking inheritance of T-DNA from RV027603 was used to regenerate “null T1 plants”. A second group of haploid embryos that inherited a T-DNA from RV027603 was used to regenerate “hemizygous T1 plants”. No artificial chromosome doubling treatment, for example a chemical chromosome doubling treatment or agent, was provided to any of the haploid embryos during the experiment.
# To assess the efficacy of in vivo genetic chromosome doubling in response to ZM-ODP2-(266-669) activity, the proportion of regenerated T1 plants capable of producing intact, mature seed was evaluated. The ear of each D0 (T1) plant for both the “null” or “hemizygous” T1 groups were shoot-bagged before silk emergence to avoid any foreign pollen contamination. The silks of the ears for each D0 (T1) plant were self-pollinated with pollen grains collected from the anthers of each D0 (T1) plant. After self-fertilization, the plants were grown to physiological maturity, the ears harvested, and D1 (T2) seed was counted per donor ear from each null and hemizygous plant per group per event. Seed counts for fertile plants were sorted into three categories: a low-range consisting of 1-24 kernels/ear, a medium-range consisting of 25-39 kernels/ear, and a high-range consisting of 40 or more kernels/ear.
# [3] = tested on: Background 1 (PHR03 x PH184C); assay: Haploid induction cross, haploid embryos scored by absence of paternal YFP, Background 1; assay type: in vivo, Zea mays
# Experimental: as §1, §2
# Using the methods described in Examples 2 and 3, T0 transgenic plants hemizygous for RV048759 (SEQ ID NO: 16) or RV027603 (SEQ ID NO: 7) were obtained from a population of transformed immature diploid embryos from two different genetic backgrounds. The first genetic background (hereinafter “Background 1”) was “PHR03 x PH184C” and the second genetic background (hereinafter “Background 2”) was X08D492.
# The T0 transgenic plants hemizygous for RV048759 were used as female parent plants and the donor ears fertilized with pollen provided by a pollen donor. The silks of the donor ears were pollinated with viable pollen grains collected from the anthers of a haploid inducer parent plant, constituting a “haploid induction cross”.
# (§3) A total of 13 unique events for RV048759 and a total of 7 unique events for RV027603 were analyzed in Background 1. A total of 13 unique events for RV048759 and a total of 11 unique events for RV027603 were analyzed in Background 2.
# [4] = tested on: Background 2 (X08D492); assay: Haploid induction cross, haploid embryos scored by absence of paternal YFP, Background 2; assay type: in vivo, Zea mays
# Experimental: as §1, §2
# Using the methods described in Examples 2 and 3, T0 transgenic plants hemizygous for RV048759 (SEQ ID NO: 16) or RV027603 (SEQ ID NO: 7) were obtained from a population of transformed immature diploid embryos from two different genetic backgrounds. The first genetic background (hereinafter “Background 1”) was “PHR03 x PH184C” and the second genetic background (hereinafter “Background 2”) was X08D492. […]
# as §3
molecule,measurement,setting,value
"COc1cc2c(c(OC)c1OC)-c1ccc(OC)c(=O)cc1[C@@H](NC(C)=O)CC2 [colchicine, (S)-N-(5,6,7,9-tetrahydro-1,2,3,10-tetramethoxy-9-oxobenzo (a)heptalen-7-yl) acetamide]",fertility rates for self-pollinated D0 plants,[1],15-20%
B1,self-pollinated hemizygous D0/T1 plants that produced 40 or more D1/T2 kernels,[2]; % of the hemizygous T1 group,83%
same,average level of fertile hemizygous T1 plants,"[2]; hemizygous T1 plants, across 8 events of RV027603, self-pollinated, no artificial chromosome doubling treatment",14.9%
same,"level of fertile null T1 plants (produced mature, intact seed)","[2]; null T1 plants lacking T-DNA of RV027603, same 8 events, self-pollinated",3.2% and 3.17%
same,self-pollinated hemizygous D0/T1 plants that produced 40 or more D1/T2 kernels (count),[2]; of 38 self-pollinated D0/T1 plants,31
same,average haploid induction rate,[3],3.5%
same,Haploid Induction Rate (%),[3]; per event,2.5% and 2.4% and 1.9% and 4.8% and 0.6% and 5.0% and 7.0%
same,average haploid induction rate,[4],15.1%
B2,average haploid induction rate,[3],31.3%
same,average haploid induction rate,[4],33.9%

# — US20250101453A1, “METHODS OF PARTHENOGENIC HAPLOID INDUCTION AND HAPLOID CHROMOSOME DOUBLING” (PIONEER HI-BRED INTERNATIONAL, INC., priority 2022, published 2025)
